From the supplement of paper PMC10126150
± gives the standard deviation of the averaged measurements.

Tested on: ATP
Experiment: switch fluorescence ratio, 500 uM ATP over buffer (Cy3 cluster intensity, sum of 5 cycles each) (fold (ratio)); higher = stronger signal-on switching upon ATP binding; sequences stand for … in TCGTCGGCAGCGTCAGATGTGTATAAGAGACAGTTTTTTTTTTTTTTTTTTTTTTTTT…TC
Settings: aptamer strand: ATP DNA aptamer (quencher-CACCTGGGGGAGTATTGCGGAGGAAGG + anchor), 100 nM annealed; ATP concentration: 500 uM
Method in brief: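 Cy3-labelled switching-strand clusters on a modified Illumina MiSeq flow-cell were annealed to 100 nM quencher-labelled ATP aptamer, imaged in selection buffer, then imaged after 15 min with 500 uM ATP at 22 °C. Five buffer/ATP cycles ran, with NaOH stripping and re-annealing between them. The fluorescence ratio is summed target-cycle over summed buffer-cycle Cy3 intensity per cluster, averaged per switch-domain sequence. Clusters outside 100-1000 RFU were excluded.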
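Note: ATP exposure 15 min at 22 °C before imaging.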

| Sequence | switch fluorescence ratio |
| --- | --- |
| TATGATTTGT | 1 ± 0.019 |
| CGTTTTACCG | 1.02 ± 0.032 |
| GTTTGAATGT | 0.97301 ± 0.0004 |
| GGGTACGTTG | 1.01 ± 0.016 |
| CAATACAGGG | 1.04 ± 0.042 |
| GTTATGGTAC | 1.03 ± 0.028 |
| GTTTCAAGAG | 1.03 ± 0.012 |
| AGCAGAAAAT | 1.01 ± 0.025 |
| TTTAGCCGGG | 0.985 ± 0.014 |
| GGGAGGGCTT | 1.05 ± 0.092 |
| AAGCGGGAGG | 1.02 ± 0.011 |
| AAGAGCACT | 1.05 ± 0.048 |
| TCATTAAGTT | 1.08 ± 0.094 |
| CTGTGTGTTC | 1.01 ± 0.026 |
| TTTCAGTCCC | 0.993 ± 0.052 |
| CCTGAGGTGT | 1.47 ± 0.18 |
| AGGGGGCCTG | 0.992 ± 0.01 |
| TTGTGGGAAG | 0.976 ± 0.034 |
| TGAAGGCCGG | 0.995 ± 0.033 |
| TCTCAAGTGG | 0.992 ± 0.031 |
| CTGTTTTACT | 1.03 ± 0.042 |
| GACAGCGGGG | 0.999 ± 0.036 |
| AAGAATGCGG | 0.988 ± 0.027 |
| AAATCGTTTT | 0.972 ± 0.047 |
| TAAATTGATG | 1.036 ± 0.0049 |
| TAAGTTAGTT | 0.979 ± 0.027 |

| Sequence | switch fluorescence ratio |
| --- | --- |
| GTGTTTGGAA | 0.993 ± 0.012 |
| GTGGGATAAA | 0.969 ± 0.011 |
| TTAACCTTTT | 1.36 ± 0.58 |
| AGGCGAGGAT | 1.012 ± 0.0075 |
| TAGGTTTAGT | 0.9841 ± 0.0094 |
| TTTAGCTTTA | 0.9735 ± 0.0092 |
| TTTCACAGGA | 1.03 ± 0.025 |
| AGTGTTTGGC | 1.01 ± 0.022 |
| TTGCTACATA | 1.07 ± 0.011 |
| TATCGGGAGC | 0.986 ± 0.026 |
| GATCTAGGGC | 1.02 ± 0.037 |
| ATATTTGTAT | 1 ± 0.012 |
| ACGTTAAGTT | 1.1 ± 0.029 |
| TCGGGTTAGT | 1.005 ± 0.0081 |
| GTGTTTTGTC | 1.02 ± 0.068 |
| CATTGTTAAT | 1.01 ± 0.04 |
| AAGTTTCTG | 0.9892 ± 0.0025 |
| GGCTTGGGGC | 0.9756 ± 0.0032 |
| GGGGGGTTGT | 1.03 ± 0.17 |
| TTTTGAGGGA | 0.9877 ± 0.002 |
| TCGTTTGGGC | 1.02 ± 0.019 |
| GCTGGATTGC | 0.916 ± 0.048 |
| GTAGTAGCGG | 1.02 ± 0.025 |
| GGGGGTCACA | 0.989 ± 0.029 |
| TTCAGGATGG | 1.02 ± 0.017 |
| ACGTCGGGTG | 1.25 ± 0.15 |

| Sequence | switch fluorescence ratio |
| --- | --- |
| TAAGTGGAAA | 0.992 ± 0.05 |
| TCTGGAATTG | 1.01 ± 0.03 |
| GTGGAAGGCG | 0.975 ± 0.03 |
| TATCCAGGGG | 2.063 ± 0.0021 |
| TGGTTGGCGT | 1.04 ± 0.066 |
| GGAAGGAGAG | 0.986 ± 0.018 |
| TAGTTAGTGA | 0.986 ± 0.034 |
| TATGGCGACA | 1.01 ± 0.087 |
| AGTTTGGTGC | 1.05 ± 0.027 |
| GGGACGGATT | 1 ± 0.021 |
| GGGGACCCTG | 0.974 ± 0.029 |
| TTGGGCTGGG | 1.01 ± 0.026 |
| TACCCCCGTT | 1.36 ± 0.041 |
| GCAGTTGGTG | 0.958 ± 0.043 |
| TTCAACTGGT | 0.996 ± 0.022 |
| AATTTGTAAA | 0.981 ± 0.04 |
| AGCAATAGGT | 1.94 ± 0.46 |
| AGAAATCCTT | 0.976 ± 0.036 |
| CGCAAAGATT | 1.06 ± 0.024 |
| TCTTTATACT | 1.05 ± 0.034 |
| TTGCTATTTC | 1 ± 0.058 |
| GAGGGGGGCG | 1.04 ± 0.085 |
| TTAAAATTGC | 1.08 ± 0.064 |
| CACGACTTTT | 1.05 ± 0.04 |
| CGGGGGTTGC | 0.977 ± 0.042 |
| ATGGTGGGGG | 0.995 ± 0.034 |

| Sequence | switch fluorescence ratio |
| --- | --- |
| ATGGGGGGGA | 1.02 ± 0.027 |
| TCTGTCTAGT | 1.01 ± 0.02 |
| TTTTGCTTGT | 0.996 ± 0.015 |
| TATTTTTGCT | 0.981 ± 0.032 |
| TTTCCCCAAT | 1.07 ± 0.063 |
| AGTTTATGCG | 0.979 ± 0.021 |
| GGGGTCTTAT | 0.996 ± 0.038 |
| TTTTGGCCTT | 0.997 ± 0.015 |
| GCATTTTTAC | 1.19 ± 0.023 |
| GAGCCTGGTT | 0.967 ± 0.035 |
| CTGGGTGTAT | 0.984 ± 0.063 |
| ATTCTGTAAT | 1.01 ± 0.017 |
| GGTGGTGACT | 1.01 ± 0.036 |
| TACTGCATAG | 1.044 ± 0.0091 |
| GATAAGTCAG | 0.989 ± 0.018 |
| GGGTGGAAAA | 0.997 ± 0.048 |
| GAGCTGTAAC | 1.02 ± 0.053 |
| ACGCTAAATA | 1.26 ± 0.03 |
| TAGTGCGGGA | 1.02 ± 0.073 |
| ATGTGTCGCG | 0.9917 ± 0.0045 |
| AAATTAGGCG | 0.975 ± 0.021 |
| TGGCAGTTTT | 1.02 ± 0.013 |
| CTTTGAGCGA | 1.11 ± 0.032 |
| AGGTTTTTTA | 1.02 ± 0.022 |
| TCGGGCTCGC | 0.9639 ± 0.0068 |
| AGCTAGTATG | 0.993 ± 0.016 |

| Sequence | switch fluorescence ratio |
| --- | --- |
| GGGGAGGGTG | 1.05 ± 0.074 |
| CGGGTCGGGC | 0.991 ± 0.013 |
| GACATGGGGC | 1.04 ± 0.058 |
| TGGAAGATGG | 1.01 ± 0.03 |
| AGGGGCAGGG | 0.932 ± 0.081 |
| CATTTTTCTG | 0.963 ± 0.06 |
| TGAGATGGTG | 0.9739 ± 0.0014 |
| CAAGTTTTTG | 1.01 ± 0.033 |
| CGGATGAGGA | 0.984 ± 0.01 |
| TAGTTTGGGC | 0.983 ± 0.019 |
| TAAAGGTGAA | 1.077 ± 0.0066 |
| TGAAGTATGG | 0.9517 ± 0.0024 |
| CGGTTCTACG | 1.009 ± 0.0053 |
| CGATAGAAGT | 1.01 ± 0.016 |
| CTGTCTCAAG | 0.97 ± 0.059 |
| TTAATTGACA | 1.064 ± 0.0092 |
| CGGACTAGGG | 1.04 ± 0.022 |
| GATAACTGAA | 1.068 ± 0.0072 |
| TAATAGGGTG | 1.08 ± 0.042 |
| GTGGGTAGTT | 0.99 ± 0.076 |
| GAGTTGGGCT | 0.979 ± 0.012 |
| ACTACTGCTG | 1.05 ± 0.0044 |
| GGGGTGTATA | 1 ± 0.045 |
| GACGTCCCAG | 0.966 ± 0.061 |
| CGGTTAGAGG | 0.989 ± 0.0013 |
| AAGCCGGAGC | 1.02 ± 0.053 |

| Sequence | switch fluorescence ratio |
| --- | --- |
| GGGTGGACGG | 0.993 ± 0.06 |
| TTTTGTTTT | 1.02 ± 0.027 |
| TAACAGAGTG | 1 ± 0.023 |
| AATTCTTTTG | 1.01 ± 0.043 |
| TAATACTGAA | 1.01 ± 0.029 |
| AGTGGGAATC | 0.989 ± 0.032 |
| TGTTGGAGGG | 1.04 ± 0.027 |
| GGCAATTGTA | 1.03 ± 0.027 |
| CGTAATGTCT | 1.06 ± 0.031 |
| CGACTTACGG | 1.11 ± 0.03 |
| TGGGATGTTC | 0.989 ± 0.031 |
| AGTTTCTAGT | 0.97 ± 0.043 |
| ATGTGTTACA | 1.01 ± 0.03 |
| AAGAGGATGG | 0.979 ± 0.011 |
| GTGATATCGG | 1.05 ± 0.034 |
| TGAGGGGTTG | 1 ± 0.036 |
| ATTAGAAAAG | 0.991 ± 0.03 |
| ATTCCTAGGG | 1.048 ± 0.0022 |
| ATGCCTGGGC | 1.03 ± 0.057 |
| TAGGCCAGTT | 0.996 ± 0.011 |
| TTAGCGGGA | 1 ± 0.023 |
| CCATTAATCT | 1.34 ± 0.46 |
| TAAAAAAAGA | 0.999 ± 0.046 |
